According to US20230265217A1 (TWIST BIOSCIENCE, published 2023):
Residue numbers refer to the chain shown, from its start.

B1: 7-6 (VHH, not shown: a dimerising Fc or GST)
VHH: EVQLVESGGGLVQPGGSLRLSCAASGRIFYPMGWFRQAPGKEREFVAAVRWSSTGIYYTQYADSVKGRFTISADNSKNTAYLQMNSLKPEDTAVYYCAAALSEVWRGSENLREGYDWGQGTLVTVSS
B2: 7-14 (VHH)
VHH: EVQLVESGGGLVQPGGSLRLSCAASGSTFSINAMGWFRQAPGKEREFVAGISRGGTTNYADSVKGRFTISADNSKNTAYLQMNSLKPEDTAVYYCAADGVPEYSDYASGPVWGQGTLVTVSS
B3: 7-32 (VHH)
VHH: B2 VHH with I31V, I51V, S52T, T56Y
B4: 7-26 (VHH)
VHH: EVQLVESGGGLVQPGGSLRLSCAASGSTFSINAMGWFRQAPGKEREFVAGITSSGGYTNYADSVKGRFTISADNSKNTAYLQMNSLKPEDTAVYYCAADGVPEYSDYASGPVWGQGTLVTVSS
B5: 7-30 (VHH, not shown: a dimerising Fc or GST)
VHH: EVQLVESGGGLVQPGGSLRLSCAASGRTFSMHAMGWFRQAPGKEREFVASISSQGRTNYADSVKGRFTISADNSKNTAYLQMNSLKPEDTAVYYCAAEVRNGSDYLPIDWGQGTLVTVSS
B6: 3-31 (VHH)
VHH: B4 VHH
notes: also called 3-31_ExpiCHO
B7: 7-8 (VHH)
VHH: B4 VHH with S30T, A49S, T52S, S53H, S54N, Y57T
B8: 7-37 (VHH)
VHH: B4 VHH with F29L, S53R, G56S, Y57V
B9: 7-31 (VHH, not shown: a dimerising Fc or GST)
VHH: EVQLVESGGGLVQPGGSLRLSCAASGFTFSNYSMGWFRQAPGKEREFVAAIHWNGDSTAYADSVKGRFTISADNSKNTAYLQMNSLKPEDTAVYYCAAQTEDSAQYIWGQGTLVTVSS
B10: 7-29 (VHH, not shown: a dimerising Fc or GST)
VHH: EVQLVESGGGLVQPGGSLRLSCAASGRTHSIYPMGWFRQAPGKEREFVASITSYGDTNYADSVKGRFTISADNSKNTAYLQMNSLKPEDTAVYYCAARRWIPPGPIWGQGTLVTVSS
B11: 7-09 (VHH)
VHH: EVQLVESGGGLVQPGGSLRLSCAASGGTFSSIGMGWFRQAPGKEREFVAAISWDGGATAYADSVKGRFTISADNSKNTAYLQMNSLKPEDTAVYYCAKEDVGKPFDWGQGTLVTVSS
notes: also called 7-9
B12: 7-21 (VHH)
VHH: EVQLVESGGGLVQPGGSLRLSCAASGRTISRYTMGWFRQAPGKEREFVASITSGGSTAYADSVKGRFTISADNSKNTAYLQMNSLKPEDTAVYYCAKEDVGKPFDWGQGTLVTVSS
B13: 7-22 (VHH, not shown: a dimerising Fc or GST)
VHH: B12 VHH with S30T, E98Q
B14: 7-40 (VHH)
VHH: B12 VHH with I29F, S30R, S53K, G54F, A58N
B15: 7-41 (VHH)
VHH: B12 VHH with I29F, R31T, T33V, T52S, G54R, S56I, A58H
B16: 7-45 (VHH)
VHH: B12 VHH with I29L, A58N
B17: 8-3 (VHH, not shown: a dimerising Fc or GST)
VHH: EVQLVESGGGLVQPGGSLRLSCAASGTTLDYYAMGWFRQAPGKEREFVAAISWSGGSTAYADSVKGRFTISADNSKNTAYLQMNSLKPEDTAVYYCAREDYYDSSGYSWGQGTLVTVSS
B18: 8-10 (VHH, not shown: a dimerising Fc or GST)
VHH: EVQLVESGGGLVQPGGSLRLSCAASGFIGNYHAMGWFRQAPGKEREFVAAVTWSGGTTNYADSVKGRFTISADNSKNTAYLQMNSLKPEDTAVYYCAREGYYYDSSGYPYYFDYWGQGTLVTVSS
B19: 7-24 (VHH, not shown: a dimerising Fc or GST)
VHH: EVQLVESGGGLVQPGGSLRLSCAASGFTFSRHAMNWFRQAPGKEREFVSTITGSGGSTNYADSVKGRFTISADNSKNTAYLQMNSLKPEDTAVYYCAREVGLYYYGSGSSSRRLLGRIDYYFDYWGQGTLVTVSS
B20: 8-06 (VHH, not shown: a dimerising Fc or GST)
VHH: EVQLVESGGGLVQPGGSLRLSCAASGFTFDYYAMGWFRQAPGKEREFVSAIDSEGRTSYADSVKGRFTISADNSKNTAYLQMNSLKPEDTAVYYCARWGPFDIWGQGTLVTVSS
notes: also called 8-6
B21: 7-17 (VHH, not shown: a dimerising Fc or GST)
VHH: EVQLVESGGGLVQPGGSLRLSCAASGFSLDYYGMGWFRQAPGKEREFVAAITSGGTPHYADSVKGRFTISADNSKNTAYLQMNSLKPEDTAVYYCASAYNPGIGYDWGQGTLVTVSS
B22: 3-17 (VHH, not shown: a dimerising Fc or GST)
VHH: EVQLVESGGGLVQPGGSLRLSCAASGRTSSSAVMGWFRQAPGKEREFVAAINRGGSTIYVDSVKGRFTISADNSKNTAYLQMNSLKPEDTAVYYCATGPYRSYFARSYLWGQGTLVTVSS
B23: 3-28 (VHH, not shown: a dimerising Fc or GST)
VHH: EVQLVESGGGLVQPGGSLRLSCAASGFTFRRYDMGWFRQAPGKEREFVSAISGGLAYYADSVKGRFTISADNSKNTAYLQMNSLKPEDTAVYYCAVDLSGDAVYDWGQGTLVTVSS
B24: 3-24 (VHH, not shown: a dimerising Fc or GST)
VHH: EVQLVESGGGLVQPGGSLRLSCAASGINFSRYGMGWFRQAPGKEREFVASITYLGRTNYADSVKGRFTISADNSKNTAYLQMNSLKPEDTAVYYCALRVRPYGQYDWGQGTLVTVSS
B25: 5A-1 (VHH)
VHH: B11 VHH
B26: 6A-3 (VHH)
VHH: EVQLVESGGGLVQPGGSLRLSCAASGFTFSPSWMGWFRQAPGKEREFVATINEYGGRNYADSVKGRFTISADNSKNTAYLQMNSLKPEDTAVYYCARVDRDFDYWGQGTLVTVSS
B27: 6A-63 (VHH)
VHH: EVQLVESGGGLVQPGGSLRLSCAASGQTFNMGWFRQAPGKEREFVAAIGSGGSTSYADSVKGRFTISADNSKNTAYLQMNSLKPEDTAVYYCWRLGNDYFDYWGQGTLVTVSS

Biological target: T1, SARS-CoV-2 S1 (Acro) (SARS-CoV-2, UniProt P0DTC2 16-685)
T1 construct: also called Acro S1
Experiment: Carterra SPR

| Binder | Kd [µM] | binding result |
| --- | --- | --- |
| B1 | 0.0424 |  |
| B2 | 0.0208 |  |
| B3 | 0.0485 |  |
| B4 | 0.0248 |  |
| B5 | 0.0487 |  |
| B6 | 0.021 |  |
| B7 | 0.0528 |  |
| B8 | 0.0216 |  |
| B9 | 0.228 |  |
| B10 | 0.0312 |  |
| B11 | 0.0241 |  |
| B12 | 0.0271 |  |
| B13 | 0.0409 |  |
| B14 | 85.6 |  |
| B15 | 0.0481 |  |
| B16 | 0.0363 |  |
| B17 | 18.4 |  |
| B18 | 658 |  |
| B19 | 4260 |  |
| B20 | 0.0377 |  |
| B21 | 0.0604 |  |
| B22 | 0.141 |  |
| B23 | 0.0522 |  |
| B24 |  | no binding |

Biological target: T1, SARS-CoV-2 S1 (Acro)
Experiment: Carterra SPR
Remark: another data set of the same source

| Binder | Kd [µM] |
| --- | --- |
| B2 | 0.0208 |
| B4 | 0.0248 |
| B5 | 0.0487 |
| B6 | 0.021 |
| B8 | 0.0216 |
| B11 | 0.0241 |
| B23 | 0.0522 |
| B25 | 0.0066 |
| B26 | 0.0315 |
| B27 | 0.0464 |

Biological target: SARS-CoV-2 S1 monomer (SARS-CoV-2, UniProt P0DTC2 16-685)
Experiment: binding kinetics, Carterra SPR

| Binder | Kd [µM] | koff [s⁻¹] | kon [M⁻¹ s⁻¹] |
| --- | --- | --- | --- |
| B2 | 0.00957 | 0.000404 | 42200 |
| B4 | 0.00363 |  |  |
| B6 | 0.00591 |  |  |
| B8 | 0.0171 | 0.000528 | 30800 |
